Reference: patent publication US20260139017A1, “COMPOSITIONS AND METHODS USING REELIN IN ALZHEIMER'S DISEASE” (The General Hospital Corporation, priority 2022, published 2026)
Each block holds one molecule with its values, some of them ahead of it.

Legend:
pDAB1 (Tyr232) [1] = assay: HRECs treated 5 minutes with recombinant mini-RELN, pDAB1 western blot; assay type: cell-based, human; conditions: 5 minutes, 4 ug/mL recombinant protein
Procedure: For in vitro screening of constructs using recombinant mini-RELN on HRECs, the cells were cultured in EBM-2 media enriched with EGM-2 Single Quots (Lonza) at 37° C. and 5% CO2 and experimentally tested at passage 7. 24 h prior experiment, cells were plated on a 6-well plate at 500,000 cells/mL. Two hours before the experiment, the cells were washed with PBS to remove residual growth media and then incubated with a starving media including EBM-2, 1% GlutaMax+0.2% Normicin. Treatments was conducted using recombinant mini RELN constructs obtained from Innovagen and Recombinant Mouse Reelin Protein from R&D systems (3820-MR-025/CF). Each treatment was incubated for 5 minutes at 4 ug/mL concentration and cells were subsequently harvested in lysis buffer was applied constituted of RIPA (Cell signaling), proteases inhibitors (cOmplete™, Mini, EDTA-free Protease Inhibitor Cocktail, Roche), phosphatases inhibitors (PhosSTOP, Roche), 1 μL of proteasome inhibitor MG-132 10 mM, 1% Triton X 100. The lysates were scraped and centrifugated at 15000 rpm for 10 minutes at 4° C. Total protein levels were quantified via BCA assay. For Western Blotting, 3.5 ug protein homogenates were prepared under reducing and denaturing conditions using Laemmli buffer enriched with 10 mM DTT and 5 min boiling. Samples were electrophoretically separated in a 4-20% Gel at 90V and protein transferred to a PVDF membrane using iBlot™ 2 Dry Blotting System. The membrane was blocked using Intercept® (TBS) Blocking Buffer for 2 hours. We detected pDAB1 (Tyr232; 1:1000, rabbit, #3325 Cell signaling), and total protein staining (Licor). Antibodies were diluted using Intercept® (TBS) Blocking Buffer and incubated overnight at 4C under gentle shaking. Prior secondary antibody incubation, membranes were washed 2 times using TBS-T for 10 minutes. As secondary antibodies we used IR Dye 800n CW Goat-anti-Rabbit (925-32211, Licor) diluted 1:10000 in blocking buffer for 1 h at room temperature under gentle shaking. Membranes were washed three times with TBST-T prior IR detection using Odyssey imager. To quantify the results, each band was quantified using ImageJ and data expressed as pDABL:total protein ratio normalized to the control.

pDAB1 (Tyr232) [2] = assay: HRECs treated 5 minutes with HEK 293T-derived mini-RELN media, pDAB1 western blot; assay type: cell-based, human; conditions: HEK 293T-derived media 1:1, 1:4, 1:14, 5 minutes
Procedure: The effect of in vitro treatment with RELN or miniRELN protein was also evaluated. HRECs were cultured in EBM-2 media enriched with EGM-2 Single Quots (Lonza) at 37° C. and 5% CO2 and experimentally tested at passage 7. 24 h prior experiment, cells were plated on a 6-well plate at 500,000 cells/mL. Two hours before the experiment, the cells were washed with PBS to remove residual growth media and then incubated with a starving media including EBM-2, 1% GlutaMax+0,2% Normicin. Treatments was conducted using media derived from HEK 293T cells transiently transfected for 24 h with different mini-RELN constructs in the presence of Lipofectamine 2000. HEK-derived Lipofectamine2000-media was used as negative control. HEK 293T-derived media was tested at different ratio 1:1, 1:4, and 1:14 (Transfected media:Starving media). Each treatment was incubated for 5 minutes and cells were subsequently harvested in lysis buffer was applied constituted of RIPA (Cell signaling), proteases inhibitors (cOmplete™, Mini, EDTA-free Protease Inhibitor Cocktail, Roche), phosphatases inhibitors (PhosSTOP, Roche), 1 μL of proteasome inhibitor MG-132 10 mM, 1% Triton X 100. The lysates were scraped and centrifugated at 15000 rpm for 10 minutes at 4° C. Total protein levels were quantified via BCA assay. […] We detected pDAB1 (Tyr232; 1:1000, rabbit, #3325 Cell signaling), and Beta actin (1:5000, mouse, #66009-1-Ig, Proteintech. Antibodies were diluted using Intercept® (TBS) Blocking Buffer and incubated overnight at 4C under gentle shaking. Prior secondary antibody incubation, membranes were washes 2 times using TBS-T for 10 minutes. As secondary antibodies we used IR Dye 800n CW Goat-anti-Rabbit (925-32211, Licor) and IR Dye 680 CW Goat-anti-Mouse (925-68070, Licor) both diluted 1:10000 in blocking buffer for 1 h at room temperature under gentle shaking. Membranes were washed three times with TBS-T prior IR detection using Odyssey imager. To quantify the results, each band was quantified using ImageJ and data expressed as pDAB1:βActin ratio normalized to the control. […]

NRP1 = biological target: T1, NRP1 (Homo sapiens, UniProt O14786); assay: Bio-layer interferometry (BLI) of CTR-RELN-NRP-1 interactions; assay type: binding; conditions: immobilized biotinylated NRP1
T1 construct: purchased R&D 3870-N1-025
T1 sequence (O14786 22-644 isoform O14786-2 limits assumed): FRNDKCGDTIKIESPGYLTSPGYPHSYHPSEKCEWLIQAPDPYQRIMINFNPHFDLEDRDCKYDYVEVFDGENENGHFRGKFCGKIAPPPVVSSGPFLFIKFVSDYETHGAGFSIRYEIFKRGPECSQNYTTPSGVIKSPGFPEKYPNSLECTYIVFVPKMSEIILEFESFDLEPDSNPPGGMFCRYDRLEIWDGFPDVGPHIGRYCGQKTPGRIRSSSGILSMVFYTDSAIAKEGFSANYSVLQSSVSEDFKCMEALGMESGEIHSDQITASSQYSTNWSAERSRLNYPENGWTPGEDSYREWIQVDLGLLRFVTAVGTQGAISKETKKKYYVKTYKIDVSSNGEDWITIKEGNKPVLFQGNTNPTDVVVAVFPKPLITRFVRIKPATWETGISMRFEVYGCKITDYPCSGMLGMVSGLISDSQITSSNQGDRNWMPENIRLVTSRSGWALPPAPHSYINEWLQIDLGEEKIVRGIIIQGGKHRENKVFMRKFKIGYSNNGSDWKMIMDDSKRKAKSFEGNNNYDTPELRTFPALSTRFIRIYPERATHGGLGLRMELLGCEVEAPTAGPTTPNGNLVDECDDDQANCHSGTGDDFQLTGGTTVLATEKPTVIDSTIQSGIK
Procedure: (§1) Bio-layer interferometry (BLI) was additionally used to assess NRP1-protein kinetics at 30° C. and 1000 rpm agitation. 1 mg/mL NRP1 (R&D 3870-N1-025) was biotinylated at a 1:2 molar ratio, desalted, and immobilized on the SA biosensor tip (Pall ForteBio) surface. This was followed by 1) 180 seconds baseline buffer diluent, 2) loading of the ligand (NRP1), 3) 180 seconds baseline buffer diluent, 4) 240 seconds association (analyte), and 5) 300 seconds disassociation in assay buffer. Assay buffer: SD Buffer (pH7.4 PBS, 0.05% tween20, 0.01% BSA).
The experimental data were fit with the 1:1 binding model and analyzed with global fitting using Octet Data Analysis software to calculate KD.
as §1, with “was” for “was additionally”, “agitation using previously published methods.” for “agitation.”

B1: hG2Fc-R5-6-C-termH3447R (protein)
chain: MYRMQLLSCIALSLALVTNSAPLERKSSVECPPCPAPPVAGPSVFLFPPKPKDTLMISRTPEVTCVVVDVSHEDPEVQFNWYVDGVEVHNAKTKPREEQFNSTFRVVSVLTVVHQDWLNGKEYKCKVSNKGLPAPIEKTISKTKGQPREPQVYTLPPSREEMTKNQVSLTCLVKGFYPSDIAVEWESNGQPENNYKTTPPMLDSDGSFFLYSKLTVDKSRWQQGNVFSCSVMHEALHNHYTQKSLSLSPGARTGGGGSGGGGSQTNATRFRLWQPYNNGKKEEIWIVDDFIIDGNNVNNPVMLLDTFDFGPREDNWFFYPGGNIGLYCPYSSKGAPEEDSAMVFVSNEVGEHSITTRDLNVNENTIIQFEINVGCSTDSSSADPVRLEFSRDFGATWHLLLPLCYHSSSHVSSLCSTEHHPSSTYYAGTMQGWRREVVHFGKLHLCGSVRFRWYQGFYPAGSQPVTWAIDNVYIGPQCEEMCNGQGSCINGTKCICDPGYSGPTCKISTKNPDFLKDDFEGQLESDRFLLMSGGKPSRKCGILSSGNNLFFNEDGLRMLMTRDLDLSHARFVQFFMRLGCGKGVPDPRSQPVLLQYSLNGGLSWSLLQEFLFSNSSNVGRYIALEIPLKARSGSTRLRWWQPSENGHFYSPWVIDQILIGGNISGNMVLEDDFTTLDSRKWLLHPGGTKMPVCGSTGDALVFIEKASTRYVVSTDVAVNEDSFLQIDFAVSCSVTDSCYAIELEYSVDLGLSWHPLVRDCLPTNVECSRYHLQRILVSDTFNKWTRITLPLPPYTRSQATRFRWHQPAPFDKQQTWAIDNVYIGDGCIDMCSGHGRCIQGNCVCDEQWGGLYCDDPETSLPTQLKDNFNRAPSSQNWLTVNGGKLSTVCGAVASGMALHFSGGCSRLLVTVDLNLTNAEFIQFYFMYGCLITPNNRNQGVLLEYSVNGGITWNLLMEIFYDQYSKPGFVNILLPPDAKEIATRFRWWQPRHDGLDQNDWAIDNVLISGSASTRKQNYMMNFSRQHGLRRFYNRRRRSLRRYP
pDAB1 levels (pDAB1 (Tyr232) [1]): increased pDAB1 levels

B2: IL2ss-6xHis-FspCR50-R6-R6 Cterm RELN-H3447R (protein)
chain: MYRMQLLSCIALSLALVTNSGGHHHHHHGGGAAGYYPRFSPFFFLCTHHGELEGDGEQGEVLISLHIAGNPTYYVPGQEYHVTISTSTFFDGLLVTGLYTSTSVQASQSIGGSSAFGFGIMSDHQFGNQFMCSVVASHVSHLPTTNLSFIWIAPPAGTGCVNFMATATHRGQVIFKDALAQQLCEQGAPTDVTVHPHLAEIHSDSIILRDDFDSYHQLQLNPNIWVECNNCETGEQCGAIMHGNAVTFCEPYGPRELITTGLNTTTASVLQFSIGSGSCRFSYSDPSIIVLYAKNNSADWIQLEKIRAPSNVSTIIHILYLPEDAKGENVQFQWKQENLRVGEVYEACWALDNILIINGGSRTLDSRKWLLHPGGTKMPVCGSTGDALVFIEKASTRYVVSTDVAVNEDSFLQIDFAVSCSVTDSCYAIELEYSVDLGLSWHPLVRDCLPTNVECSRYHLQRILVSDTFNKWTRITLPLPPYTRSQATRFRWHQPAPFDKQQTWAIDNVYIGDGCIDMCSGHGRCIQGNCVCDEQWGGLYCDDPETSLPTQLKDNFNRAPSSQNWLTVNGGKLSTVCGAVASGMALHFSGGCSRLLVTVDLNLTNAEFIQFYFMYGCLITPNNRNQGVLLEYSVNGGITWNLLMEIFYDQYSSGGGTLDSRKWLLHPGGTKMPVCGSTGDALVFIEKASTRYVVSTDVAVNEDSFLQIDFAVSCSVTDSCYAIELEYSVDLGLSWHPLVRDCLPTNVECSRYHLQRILVSDTFNKWTRITLPLPPYTRSQATRFRWHQPAPFDKQQTWAIDNVYIGDGCIDMCSGHGRCIQGNCVCDEQWGGLYCDDPETSLPTQLKDNFNRAPSSQNWLTVNGGKLSTVCGAVASGMALHFSGGCSRLLVTVDLNLTNAEFIQFYFMYGCLITPNNRNQGVLLEYSVNGGITWNLLMEIFYDQYSTGGSGGSTRKQNYMMNFSRQHGLRRFYNRRRRSLRRYP
pDAB1 / Dab1 signaling activation (pDAB1 (Tyr232) [2]): efficacy

ka (NRP1): 12900 M⁻¹ s⁻¹ | kd (NRP1): 0.00102 s⁻¹
B3: pfcn-huIgG2-C-termH3447R (protein)
chain: MYRMQLLSCIALSLALVTNSAPLERKSSVECPPCPAPPVAGPSVFLFPPKPKDTLMISRTPEVTCVVVDVSHEDPEVQFNWYVDGVEVHNAKTKPREEQFNSTFRVVSVLTVVHQDWLNGKEYKCKVSNKGLPAPIEKTISKTKGQPREPQVYTLPPSREEMTKNQVSLTCLVKGFYPSDIAVEWESNGQPENNYKTTPPMLDSDGSFFLYSKLTVDKSRWQQGNVFSCSVMHEALHNHYTQKSLSLSPGARTSTRKQNYMMNFSRQHGLRRFYNRRRRSLRRYP
